Data published in article PMC9376891 (Nature Communications, 2022).

B1: Rae1(31-368)-Nup98(157-213) heterodimer (complex)
chain 1: DIEVTSSPDDSIGCLSFSPPTLPGNFLIAGSWANDVRCWEVQDSGQTIPKAQQMHTGPVLDVCWSDDGSKVFTASCDKTAKMWDLSSNQAIQIAQHDAPVKTIHWIKAPNYSCVMTGSWDKTLKFWDTRSSNPMMVLQLPERCYCADVIYPMAVVATAERGLIVYQLENQPSEFRRIESPLKHQHRCVAIFKDKQNKPTGFALGSIEGRVAIHYINPPNPAKDNFTFKCHRSNGTNTSAPQDIYAVNGIAFHPVHGTLATVGSDGRFSFWDKDARTKLKTSEQLDQPISACCFNHNGNIFAYASSYDWSKGHEFYNPQKKNYIFLRNAAEELKPRNKK
chain 2: not shown
notes: also called Rae1-Nup98; Rae1-Nup98 complex

Target: T1, Rae1(31-368)-Nup98(157-213) heterodimer (human, UniProt P78406 31-368; P52948 157-213)
T1 construct: also called Rae1-Nup98; Rae1-Nup98 complex
Assay: ITC
Settings: both partners purified
T1 sequence (P52948 157-213, chain 2 of 2, one chain of several): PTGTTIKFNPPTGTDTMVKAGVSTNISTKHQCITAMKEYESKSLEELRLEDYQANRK

Point of comparison: YSQLDEEQPM (source: synthetic peptide) [SARS-CoV-2 ORF6 C3 lacking the last three residues 59-EID-61 but retaining M58], Kd 87700 nM. Against it:
- RAITDGGESPMEWQTL [MHV-68 ORF10 CTT peptide] — 15-fold lower, 5710 nM
- YSQLDEEQPMEID (source: synthetic peptide) [SARS-CoV-2 ORF6 C3 peptide] — 370-fold lower, 240 nM
- YSELDDEEPMELDYP [SARS-CoV ORF6 C3 peptide] — 240-fold lower, 370 nM
- YSELDDEEPMELD [SARS-CoV ORF6 C3 -YP] — 800-fold lower, 110 nM

Target: B1
Assay: ITC
Settings: both partners purified
Target sequence in this assay (P52948 157-213, chain 2 of 2, one chain of several): as above

Point of comparison: SLTENKYSQLDEEQPMEID (source: synthetic peptide) [SARS-CoV-2 ORF6 C1], Ka 2.62e+06 M⁻¹. Against it:
- DEEQPMEID (source: synthetic peptide) [SARS-CoV-2 ORF6 C4] — within 1.5-fold, 2.25e+06 M⁻¹
- ENKYSQLDEEQPMEID (source: synthetic peptide) [SARS-CoV-2 ORF6 C2] — within 1.5-fold, 3.58e+06 M⁻¹
- YSQLDEEQPMEID (source: synthetic peptide) [SARS-CoV-2 ORF6 C3] — 1.6-fold higher, 4.12e+06 M⁻¹

Point of comparison: DEEQPMEID (source: synthetic peptide) [SARS-CoV-2 ORF6 C4], Kd 440 nM. Against it:
- SLTENKYSQLDEEQPMEID (source: synthetic peptide) [SARS-CoV-2 ORF6 C1] — within 1.5-fold, 380 nM
- ENKYSQLDEEQPMEID (source: synthetic peptide) [SARS-CoV-2 ORF6 C2] — 1.6-fold lower, 270 nM

Point of comparison: SLTENKYSQLDEEQPMEID (source: synthetic peptide) [SARS-CoV-2 ORF6 C1], “stoichiometry N” value 1.06. Against it:
- DEEQPMEID (source: synthetic peptide) [SARS-CoV-2 ORF6 C4] — lower, 0.82
- ENKYSQLDEEQPMEID (source: synthetic peptide) [SARS-CoV-2 ORF6 C2] — higher, 1.17
- YSQLDEEQPMEID (source: synthetic peptide) [SARS-CoV-2 ORF6 C3] — lower, 0.9

Target: B1
Assay: ITC
Settings: both partners purified
Remark: another data set of the same source
Target sequence in this assay (P52948 157-213, chain 2 of 2, one chain of several): as above

Point of comparison: YSQLDEEQPM (source: synthetic peptide) [SARS-CoV-2- ORF6-EID], Ka 11400 M⁻¹. Against it:
- YSELDDEEPMELDYP [SARS-CoV ORF6 C3] — 240-fold higher, 2.69e+06 M⁻¹
- YSELDDEEPMELD [SARS-CoV ORF6-YP] — 780-fold higher, 8.89e+06 M⁻¹
- DEMDTHDPNQLRY [VSV-M-NTE] — within 1.5-fold, 8550 M⁻¹

Point of comparison: YSQLDEEQPM (source: synthetic peptide) [SARS-CoV-2- ORF6-EID], “stoichiometry N” value 1.01. Against it:
- YSELDDEEPMELDYP [SARS-CoV ORF6 C3] — lower, 0.63
- YSELDDEEPMELD [SARS-CoV ORF6-YP] — lower, 0.62
- DEMDTHDPNQLRY [VSV-M-NTE] — lower, 0.304

Target: T2, MHV68-ORF10-CTT (murine gammaherpesvirus 68)
T2 construct: source: synthetic peptide
Assay: ITC
Settings: both partners purified

T2 sequence (P52948 157-213): as the sequence (P52948 157-213, chain 2 of 2, one chain of several) above

With B1 the Ka was 175000 M⁻¹.
